Data as given in patent US20260242735A1 (UNIVERSIT T BASEL, published 2026).

What was measured:
Assay in all cases: alanine scan, flow cytometry, HEK293-T;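 note: antibody binding to each alanine-substituted CD33 mutant expressed transiently in HEK293-T, read as fluorescence minus background, mean of duplicates, relative to wild-type CD33 set as 100%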
human CD33 T253A = human CD33 T253A (human, UniProt P20138 18-364)
human CD33 V257A = human CD33 V257A (human, UniProt P20138 18-364)
human CD33 V258A = human CD33 V258A (human, UniProt P20138 18-364)
Chain of human CD33 V258A (P20138 18-364 V258A limits assumed): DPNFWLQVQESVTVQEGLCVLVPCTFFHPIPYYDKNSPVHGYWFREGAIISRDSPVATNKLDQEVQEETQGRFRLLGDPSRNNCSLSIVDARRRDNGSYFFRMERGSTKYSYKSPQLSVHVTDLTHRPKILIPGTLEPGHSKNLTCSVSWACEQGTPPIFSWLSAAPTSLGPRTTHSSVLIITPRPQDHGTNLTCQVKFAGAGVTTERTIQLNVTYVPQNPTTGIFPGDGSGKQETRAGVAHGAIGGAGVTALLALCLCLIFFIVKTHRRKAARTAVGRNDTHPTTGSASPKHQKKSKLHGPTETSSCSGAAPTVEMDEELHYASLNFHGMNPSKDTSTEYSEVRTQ

human CD33 A269S = human CD33 A269S (human, UniProt P20138 18-364)
Chain of human CD33 A269S (P20138 18-364 A269S limits assumed): as the sequence (P20138 18-364 V258A limits assumed) above, with A241V, A252S counted along it

human CD33 F279A = human CD33 F279A (human, UniProt P20138 18-364)
Chain of human CD33 F279A (P20138 18-364 F279A limits assumed): as the sequence (P20138 18-364 V258A limits assumed) above, with A241V, F262A counted along it

human CD33 R287A = human CD33 R287A (human, UniProt P20138 18-364)
Chain of human CD33 R287A (P20138 18-364 R287A limits assumed): as the sequence (P20138 18-364 V258A limits assumed) above, with A241V, R270A counted along it

human CD33 A289S = human CD33 A289S (human, UniProt P20138 18-364)
Chain of human CD33 A289S (P20138 18-364 A289S limits assumed): as the sequence (P20138 18-364 V258A limits assumed) above, with A241V, A272S counted along it

human CD33 R291A = human CD33 R291A (human, UniProt P20138 18-364)
Chain of human CD33 R291A (P20138 18-364 R291A limits assumed): as the sequence (P20138 18-364 V258A limits assumed) above, with A241V, R274A counted along it

human CD33 A293S = human CD33 A293S (human, UniProt P20138 18-364)
Chain of human CD33 A293S (P20138 18-364 A293S limits assumed): as the sequence (P20138 18-364 V258A limits assumed) above, with A241V, A276S counted along it

human CD33 N297A = human CD33 N297A (human, UniProt P20138 18-364)
Chain of human CD33 N297A (P20138 18-364 N297A limits assumed): as the sequence (P20138 18-364 V258A limits assumed) above, with A241V, N280A counted along it

human CD33 D298A = human CD33 D298A (human, UniProt P20138 18-364)
Chain of human CD33 D298A (P20138 18-364 D298A limits assumed): as the sequence (P20138 18-364 V258A limits assumed) above, with A241V, D281A counted along it

human CD33 T302A = human CD33 T302A (human, UniProt P20138 18-364)
Chain of human CD33 T302A (P20138 18-364 T302A limits assumed): as the sequence (P20138 18-364 V258A limits assumed) above, with A241V, T285A counted along it

human CD33 T303A = human CD33 T303A (human, UniProt P20138 18-364)
Chain of human CD33 T303A (P20138 18-364 T303A limits assumed): as the sequence (P20138 18-364 V258A limits assumed) above, with A241V, T286A counted along it

Chain of human CD33 T253A (P20138 18-364 T253A limits assumed): as the sequence (P20138 18-364 V258A limits assumed) above, with T236A, A241V counted along it
Chain of human CD33 V257A (P20138 18-364 V257A limits assumed): as the sequence (P20138 18-364 V258A limits assumed) above, with V240A, A241V counted along it

Mean % WT Binding (human CD33 T253A)	Mean % WT Binding (human CD33 V257A)	Mean % WT Binding (human CD33 V258A)	Mean % WT Binding (human CD33 A269S)	Mean % WT Binding (human CD33 F279A)	Mean % WT Binding (human CD33 R287A)	Mean % WT Binding (human CD33 A289S)	Mean % WT Binding (human CD33 R291A)	Mean % WT Binding (human CD33 A293S)	Mean % WT Binding (human CD33 N297A)	Mean % WT Binding (human CD33 D298A)	Mean % WT Binding (human CD33 T302A)	Mean % WT Binding (human CD33 T303A)	Binder
108 % WT binding	110 % WT binding	95.8 % WT binding	83.6 % WT binding	103 % WT binding	65.3 % WT binding	95 % WT binding	102 % WT binding	106 % WT binding	88.9 % WT binding	83.9 % WT binding	98.2 % WT binding	81.2 % WT binding	Refmab #4 (antibody, V domains shown, The alanine scan used IgG or Fab) VH: QVQLVQSGAEVKKPGESVKVSCKASGYTFTNYGMNWVKQAPGQGLEWMGWINTYTGEPTYADKFQGRVTMTTDTSTSTAYMEIRNLGGDDTAVYYCARWSWSDGYYVYFDYWGQGTSVTVSS VL: DIVMTQSPDSLTVSLGERTTINCKSSQSVLDSSTNKNSLAWYQQKPGQPPKLLLSWASTRESGIPDRFSGSGSGTDFTLTIDSPQPEDSATYYCQQSAHFPITFGQGTRLEIK
98.1 % WT binding	89 % WT binding	106 % WT binding	97.4 % WT binding	138 % WT binding	112 % WT binding	82.8 % WT binding	97.5 % WT binding	72.9 % WT binding	133 % WT binding	80.1 % WT binding	101 % WT binding	72.7 % WT binding	Refmab #3 (antibody, V domains shown, The alanine scan used IgG or Fab) VH: QVQLVQSGAEVKKPGSSVKVSCKASGYTFTDYNMHWVRQAPGQGLEWIGYIYPYNGGTGYNQKFKSKATITADESTNTAYMELSSLRSEDTAVYYCARGRPAMDYWGQGTLVTVSS VL: DIQMTQSPSSLSASVGDRVTITCRASESVDNYGISFMNWFQQKPGKAPKLLIYAASNQGSGVPSRFSGSGSGTDFTLTISSLQPDDFATYYCQQSKEVPWTFGQGTKVEIK
